According to patent publication EP4768505A1 (Shenzhen Genocury Biotech Co., Ltd, dated 2026):
Numbering of substitutions follows the chain as printed.

B1: anti-CD79B single-domain antibody JYB14 (VHH)
VHH: DVQLQESGGGLVQPGGSLSLTCTASISSLTIWVRAWHRQAPGKQRELVAAINSDGQTMYADSVKGRFTISRDNAKTTVSLQMDSLKPEDTAVYYCNVVTPNGQQYWGQGTQVTVSS
notes: Alpaca VHH from a phage library; ELISA detected with an anti-myc antibody; a myc tag is not described; not shown: His-tag protein at the C-terminal end
B2: anti-CD79B single-domain antibody JYB8 (VHH, not shown: small tags and cut ends)
VHH: B1 VHH with V12M, T30S, N73S, N101K
B3: anti-CD79B single-domain antibody JYB10 (VHH)
VHH: B1 VHH with T21S, T23A, L29S, T30S, S53N, D83N, N101K, Q103H
notes: as for B1
B4: anti-CD79B single-domain antibody JYB4 (VHH)
VHH: DVQLQESGGGLVQPGGSLRLSCAASGFAFSLYAMSWARQAPGKGLEWVSDIYGDDDSRRNYADSVKGRFTISRDNAKNTVYLQMTNLQPEDTALYYCGKGRDGTRWSAREYEYRGQGTQVTVSS
notes: Alpaca VHH from a phage library; not shown: His-tag protein at the C-terminal end

How the values were obtained:
[1] = target: T1, Mouse CD79B antigen (mouse, UniProt P15530 26-158, limits assumed); assay: ELISA on coated antigen, anti-myc detection
T1 sequence (looked up): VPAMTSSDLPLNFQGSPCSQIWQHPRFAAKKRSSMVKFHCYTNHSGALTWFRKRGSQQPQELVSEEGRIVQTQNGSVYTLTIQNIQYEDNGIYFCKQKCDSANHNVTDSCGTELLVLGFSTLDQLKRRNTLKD

[2] = target: Human CD79A+CD79B antigen (human) (UniProt P11912); assay: ELISA on coated antigen, anti-myc detection; 2ng antibody added
[3] = target: Human CD79B Protein, His Tag (MALS verified), Cat. No. #CDB-H52H3-1mg, ACRO (human) (UniProt P40259); assay: as above
[4] = target: T2, Mouse CD79A+CD79B antigen (mouse) (UniProt P11911); assay: as above
T2 sequence (looked up) 1: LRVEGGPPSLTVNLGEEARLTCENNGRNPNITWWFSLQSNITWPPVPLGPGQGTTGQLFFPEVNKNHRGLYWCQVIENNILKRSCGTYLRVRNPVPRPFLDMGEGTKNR
T2 sequence (looked up) 2: T1 sequence (looked up)

[5] = target: Human CD79A+CD79B antigen (human) (UniProt P11912); assay: ELISA on coated antigen, anti-myc detection; 2ug antibody added
[6] = target: Human CD79B Protein, His Tag (MALS verified), Cat. No. #CDB-H52H3-1mg, ACRO (human) (UniProt P40259); assay: as above
[7] = target: T2, Mouse CD79A+CD79B antigen (mouse); assay: as above
[8] = target: Human CD79A+CD79B antigen (human) (UniProt P11912); assay: ELISA on coated antigen, anti-myc detection; 20ug antibody added
[9] = target: Human CD79B Protein, His Tag (MALS verified), Cat. No. #CDB-H52H3-1mg, ACRO (human) (UniProt P40259); assay: as above
[10] = target: T2, Mouse CD79A+CD79B antigen (mouse); assay: as above
[11] = target: Human CD79A+CD79B antigen (human) (UniProt P11912); assay: ELISA on coated antigen, anti-myc detection; 20ng antibody added
[12] = target: Human CD79B Protein, His Tag (MALS verified), Cat. No. #CDB-H52H3-1mg, ACRO (human) (UniProt P40259); assay: as above
[13] = target: T2, Mouse CD79A+CD79B antigen (mouse); assay: as above
[14] = target: Human CD79A+CD79B antigen (human) (UniProt P11912); assay: ELISA on coated antigen, anti-myc detection; 200ng antibody added
[15] = target: Human CD79B Protein, His Tag (MALS verified), Cat. No. #CDB-H52H3-1mg, ACRO (human) (UniProt P40259); assay: as above
[16] = target: T2, Mouse CD79A+CD79B antigen (mouse); assay: as above
[17] = target: Human CD79A+CD79B antigen (human) (UniProt P11912); assay: ELISA on coated antigen, anti-myc detection; 200pg antibody added
[18] = target: Human CD79B Protein, His Tag (MALS verified), Cat. No. #CDB-H52H3-1mg, ACRO (human) (UniProt P40259); assay: as above
[19] = target: T2, Mouse CD79A+CD79B antigen (mouse); assay: as above
[20] = target: BSA (UniProt P02769); assay: ELISA on coated BSA control, anti-myc detection; 2ug antibody added
BSA, sequence (P02769 25-607 limits assumed): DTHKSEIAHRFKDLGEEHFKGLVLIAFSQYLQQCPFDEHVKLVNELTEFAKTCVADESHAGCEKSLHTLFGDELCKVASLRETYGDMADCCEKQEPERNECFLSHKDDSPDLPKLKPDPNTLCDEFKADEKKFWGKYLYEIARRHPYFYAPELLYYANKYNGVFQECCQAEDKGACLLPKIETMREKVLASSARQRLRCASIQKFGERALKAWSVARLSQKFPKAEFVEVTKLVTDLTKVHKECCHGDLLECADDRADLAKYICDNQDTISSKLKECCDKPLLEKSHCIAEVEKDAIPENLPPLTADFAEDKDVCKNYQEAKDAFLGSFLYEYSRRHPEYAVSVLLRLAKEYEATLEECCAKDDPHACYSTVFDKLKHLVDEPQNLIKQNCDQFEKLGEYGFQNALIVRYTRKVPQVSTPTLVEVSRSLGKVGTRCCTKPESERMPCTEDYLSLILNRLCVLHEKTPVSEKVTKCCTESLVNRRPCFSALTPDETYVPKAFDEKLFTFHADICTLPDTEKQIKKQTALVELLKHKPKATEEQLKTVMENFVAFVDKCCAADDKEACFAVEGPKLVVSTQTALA

[21] = target: BSA (UniProt P02769); assay: ELISA on coated BSA control, anti-myc detection; 2ng antibody added
[22] = target: BSA (UniProt P02769); assay: ELISA on coated BSA control, anti-myc detection; 20ng antibody added
[23] = target: BSA (UniProt P02769); assay: ELISA on coated BSA control, anti-myc detection; 20ug antibody added
[24] = target: BSA (UniProt P02769); assay: ELISA on coated BSA control, anti-myc detection; 200ng antibody added
[25] = target: BSA (UniProt P02769); assay: ELISA on coated BSA control, anti-myc detection; 200pg antibody added
[26] = target: T3, human CD79B antigen (a full-length protein containing signal peptide, UniProt ID: P40259) on cells (human, UniProt P40259 29-229); assay: flow cytometry on HEK-293T cells overexpressing CD79B-GFP, 0.1 mg/mL, APC-His tag antibody
T3 construct: whole, on cells; Used for the flow cytometry on transfected HEK-293T cells; F2A residues left at the C-terminus after cleavage are not described; also called CD79B-GFP molecule; HEK-293T cells overexpressing the CD79B-GFP molecule
T3 sequence (looked up): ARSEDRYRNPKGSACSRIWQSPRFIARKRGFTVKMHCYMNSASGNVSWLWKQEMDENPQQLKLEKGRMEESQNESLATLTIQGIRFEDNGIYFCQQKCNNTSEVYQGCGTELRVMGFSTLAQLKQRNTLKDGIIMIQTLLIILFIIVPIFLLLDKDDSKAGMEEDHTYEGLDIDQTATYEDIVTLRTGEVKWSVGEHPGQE

[27] = target: T1, Mouse CD79B antigen; assay: ELISA on coated antigen, anti-myc detection; 2ng antibody added
[28] = target: T1, Mouse CD79B antigen; assay: ELISA on coated antigen, anti-myc detection; 2ug antibody added
[29] = target: T1, Mouse CD79B antigen; assay: ELISA on coated antigen, anti-myc detection; 20ug antibody added
[30] = target: T1, Mouse CD79B antigen; assay: ELISA on coated antigen, anti-myc detection; 20ng antibody added
[31] = target: T1, Mouse CD79B antigen; assay: ELISA on coated antigen, anti-myc detection; 200ng antibody added
[32] = target: T1, Mouse CD79B antigen; assay: ELISA on coated antigen, anti-myc detection; 200pg antibody added

Binder | OD450 nm [2] [OD450] | OD450 nm [3] [OD450] | OD450 nm [4] [OD450] | OD450 nm [5] [OD450] | OD450 nm [6] [OD450] | OD450 nm [7] [OD450] | OD450 nm [8] [OD450] | OD450 nm [9] [OD450] | OD450 nm [10] [OD450] | OD450 nm [11] [OD450] | OD450 nm [12] [OD450] | OD450 nm [13] [OD450] | OD450 nm [14] [OD450] | OD450 nm [15] [OD450] | OD450 nm [16] [OD450] | OD450 nm [17] [OD450] | OD450 nm [18] [OD450] | OD450 nm [19] [OD450] | OD450 nm [20] [OD450] | OD450 nm [21] [OD450] | further results
B1 | 0.0603 | 0.0507 | 0.0584 | 0.634 | 0.346 | 0.0726 | 0.855 | 0.495 | 0.117 | 0.116 | 0.139 | 0.0578 | 0.421 | 0.321 | 0.0597 | 0.0561 | 0.0501 | 0.0609 | 0.0506 | 0.0474 | binding result [1]: no binding (tested: 20ug); OD450 nm [22]: 0.0476 OD450; OD450 nm [23]: 0.0489 OD450; OD450 nm [24]: 0.0493 OD450; OD450 nm [25]: 0.0489 OD450; binding result [26]: binds
B2 | 0.0544 | 0.06 | 0.0543 | 0.802 | 0.506 | 0.206 | 0.922 | 0.596 | 0.356 | 0.115 | 0.145 | 0.0553 | 1.43 | 0.308 | 0.068 | 0.0521 | 0.0418 | 0.0619 | 0.0582 | 0.0474 | OD450 nm [27]: 0.0512 OD450; OD450 nm [28]: 0.178 OD450; OD450 nm [29]: 0.229 OD450; OD450 nm [30]: 0.0551 OD450; OD450 nm [31]: 0.0622 OD450; OD450 nm [32]: 0.0485 OD450; OD450 nm [22]: 0.0554 OD450; OD450 nm [23]: 0.0537 OD450; OD450 nm [24]: 0.052 OD450; OD450 nm [25]: 0.0534 OD450
B3 | 0.0596 | 0.0517 | 0.0584 | 0.554 | 0.221 | 0.0788 | 0.816 | 0.285 | 0.126 | 0.0687 | 0.0739 | 0.0609 | 0.224 | 0.144 | 0.0601 | 0.0573 | 0.0496 | 0.0584 | 0.0482 | 0.0486 | OD450 nm [27]: 0.0512 OD450; OD450 nm [28]: 0.0588 OD450; OD450 nm [29]: 0.0982 OD450; OD450 nm [30]: 0.0517 OD450; OD450 nm [31]: 0.0527 OD450; OD450 nm [32]: 0.0517 OD450; OD450 nm [22]: 0.0474 OD450; OD450 nm [23]: 0.0493 OD450; OD450 nm [24]: 0.0473 OD450; OD450 nm [25]: 0.0488 OD450; binding result [26]: binds
B4 | 0.063 | 0.0519 | 0.0574 | 0.585 | 0.485 | 0.0549 | 0.658 | 0.552 | 0.049 | 0.172 | 0.15 | 0.0572 | 0.421 | 0.375 | 0.0567 | 0.0577 | 0.0521 | 0.0601 | 0.0479 | 0.0479 | binding result [1]: no binding (tested: 20ug); OD450 nm [22]: 0.0499 OD450; OD450 nm [23]: 0.0488 OD450; OD450 nm [24]: 0.049 OD450; OD450 nm [25]: 0.0476 OD450; binding result [26]: binds
